# T1: mouse MAdCAM expressed on cells (mouse, UniProt Q61826 22-405)
# T1 construct: whole, on cells
# T1 sequence (looked up): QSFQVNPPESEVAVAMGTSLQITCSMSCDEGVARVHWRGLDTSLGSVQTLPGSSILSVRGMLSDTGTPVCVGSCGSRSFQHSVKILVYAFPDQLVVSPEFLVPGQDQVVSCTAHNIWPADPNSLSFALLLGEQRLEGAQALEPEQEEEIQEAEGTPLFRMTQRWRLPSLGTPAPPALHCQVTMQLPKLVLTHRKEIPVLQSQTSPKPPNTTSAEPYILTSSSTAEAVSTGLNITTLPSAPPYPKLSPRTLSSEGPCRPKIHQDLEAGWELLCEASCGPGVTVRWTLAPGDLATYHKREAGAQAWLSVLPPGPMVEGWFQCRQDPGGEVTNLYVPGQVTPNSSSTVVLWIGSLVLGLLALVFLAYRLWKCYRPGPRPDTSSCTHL
# T2: human MAdCAM expressed on cells (human, UniProt Q13477 19-382)
# T2 construct: whole, on cells; also called MADCAM1
# T2 sequence (looked up): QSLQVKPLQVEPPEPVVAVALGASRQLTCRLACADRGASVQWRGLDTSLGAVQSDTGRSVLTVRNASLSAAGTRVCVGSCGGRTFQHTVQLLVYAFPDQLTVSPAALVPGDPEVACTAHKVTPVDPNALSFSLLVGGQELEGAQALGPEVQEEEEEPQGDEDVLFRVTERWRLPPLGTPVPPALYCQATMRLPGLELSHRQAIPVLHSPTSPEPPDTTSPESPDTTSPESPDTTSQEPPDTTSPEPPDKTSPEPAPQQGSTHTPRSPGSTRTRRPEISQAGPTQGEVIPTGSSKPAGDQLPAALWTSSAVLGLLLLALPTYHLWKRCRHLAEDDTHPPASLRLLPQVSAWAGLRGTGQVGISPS
# Assays:
# [1] = target: T1, mouse MAdCAM expressed on cells; assay: cell binding
# [2] = target: T2, human MAdCAM expressed on cells; assay: cell binding
Binder,binding result [1],binding result [2]
MAdCAM Antibody Table 1 Clone 55 (scFv) scFv: QVQLVQSGAEVKKPGASVKVSCKASGYTFTSYYMHWVRQAPGQGLEWMGIIDPSGGSTSYAQKFQGRVTMTRDTSTSTVYMELSSLRSEDTAVYYCAREEWSSGGVGYFDYWGQGTLVTVSSGGGGSGGGGSGGGGSGGGGSDIQMTQSPSSLSASVGDRVTITCRASQGISSYLAWYQQKPGKAPKLLIYATSSLQTGVPSRFSGSGSGTDFTLTISSLQPEDFATYYCQQTYSIPITFGQGTRLEIK,no binding,binds
MAdCAM Antibody Table 1 Clone 52 (scFv) scFv: EVQLLESGGGLVQPGGSLRLSCAASGFTFSNSDMNWVRQAPGKGLEWVAHIWNDGSQKYYADSVKGRFTISRDNSKNTLYLQMNSLRAEDTAVYYCARDRTDPGYSSAMDVWGQGTTVTVSSGGGGSGGGGSGGGGSGGGGSDIQMTQSPSSLSASVGDRVTITCRASQDIRNYLGWYQQKPGKAPKLLIYDASSLETGVPSRFSGSGSGTDFTLTISSLQPEDFATYYCQQATSLPLTFGGGTKVEIK,no binding,binds
MAdCAM Antibody Table 1 Clone 45 (scFv) scFv: EVQLLESGGGLVQPGGSLRLSCAASGFSVSSNYMSWVRQAPGKGLEWVAGISYDGSSKPYADSVKGRFTISRDNSKNTLYLQMNSLRAEDTAVYYCARSRGIAARPLQHWGQGTLVTVSSGGGGSGGGGSGGGGSGGGGSDIVMTQSPDSLAVSLGERATINCKSSQSVLYSSNNKNYLAWYQQKPGQPPKLLIYWASTRQSGVPDRFSGSGSGTDFTLTISSLQAEDVAVYYCHQYYGHPPTFGGGTKVEIK,no binding,binds
MAdCAM Antibody Table 1 Clone 46 (scFv) scFv: EVQLLESGGGLVQPGGSLRLSCAASGFSVSSNYMSWVRQAPGKGLEWVAGISYDGSSKPYADSVKGRFTISRDNSKNTLYLQMNSLRAEDTAVYYCARSRGIAARPLQHWGQGTLVTVSSGGGGSGGGGSGGGGSGGGGSDIVMTQSPDSLAVSLGERATINCKSSQSVLYSSNNKNYLAWYQQKPGQPPKLLIYQASTRQSGVPDRFSGSGSGTDFTLTISSLQAEDVAVYYCHQYYGHPPTFGGGTKVEIK,no binding,binds
MAdCAM Antibody Table 1 Clone 51 (scFv) scFv: EVQLLESGGGLVQPGGSLRLSCAASGFTFNNYGMNWVRQAPGKGLEWVSRINSDGSSTSYADSVKGRFTISRDNSKNTLYLQMNSLRAEDTAVYYCARGAYYYYYMDVWGQGTLVTVSSGGGGSGGGGSGGGGSGGGGSEIVMTQSPATLSVSPGERATLSCRASQSVSGSYLAWYQQKPGQAPRLLIYATSSRASGIPARFSGSGSGTEFTLTISSLQSEDFAVYYCQQYYSGLTFGQGTKVEIK,no binding,binds
MAdCAM Antibody Table 1 Clone 61 (scFv) scFv: EVQLLESGGGLVQPGGSLRLSCAASEFTFSNAWMSWVRQAPGKGLEWVASISSTSAYIDYADSVKGRFTISRDNSKNTLYLQMNSLRAEDTAVYYCAREVVGATTFDYWGQGTLVTVSSGGGGSGGGGSGGGGSGGGGSDIQMTQSPSSLSASVGDRVTITCRASQSISTWLAWYQQKPGKAPKLLIYAASSLQSGVPSRFSGSGSGTDFTLTISSLQPEDFATYYCQQANAFPPTFGQGTRLEIK,binds,binds
MAdCAM Antibody Table 1 Clone 48 (scFv) scFv: EVQLLESGGGLVQPGGSLRLSCAASGFTFSDHGMHWVRQAPGKGLEWVSVIYGGESTYYADSVKGRFTISRDNSKNTLYLQMNSLRAEDTAVYYCARDPAVAGGGIFDYWGQGTLVTVSSGGGGSGGGGSGGGGSGGGGSDIQMTQSPSSLSASVGDRVTITCRASQGISNYLAWYQQKPGKAPKLLIYDASNLETGVPSRFSGSGSGTDFTLTISSLQPEDFATYYCQQSYSTCYTFGQGTKLEIK,no binding,binds
MAdCAM Antibody Table 1 Clone 63 (scFv) scFv: EVQLLESGGGLVKPGGSLRLSCAASGFTFDDYAMHWVRQAPGKGLEWVASITSSSAFIDYAASVKGRFTISRDDSKNTLYLQMNSLKTEDTAVYYCARERVDWNSYFDLWGRGTLVTVSSGGGGSGGGGSGGGGSGGGGSEIVMTQSPATLSVSPGERATLSCRASQGISNSYLAWYQQKPGQAPRLLIYGASTRATGIPARFSGSGSGTEFTLTISSLQSEDFAVYYCQQYYTYPPTFGPGTKVDIK,binds,binds
MAdCAM Antibody Table 1 Clone 58 (scFv) scFv: QVQLVQSGAEVKKPGASVKVSCKASGYTFTGYYMHWVRQAPGQGLEWMGIINPSGGNTKYAQKFQGRVTMTRDTSTSTVYMELSSLRSEDTAVYYCTTADYYYYMDVWGKGTTVTVSSGGGGSGGGGSGGGGSGGGGSDIQMTQSPSSLSASVGDRVTITCRASQGISNYLAWYQQKPGKAPKLLIYAASSLQSGVPSRFSGSGSGTDFTLTISSLQPEDFATYYCQQYYSNADFGQGTKVEIK,no binding,binds
MAdCAM Antibody Table 1 Clone 53 (scFv) scFv: QVQLVQSGAEVKKPGASVKVSCKASGYTFTSYDINWVRQAPGQGLEWMGWMNPNSGNTGYAQKFQGRVTMTRDTSTSTVYMELSSLRSEDTAVYYCAKDSDYSNLLWDYWGQGTLVTVSSGGGGSGGGGSGGGGSGGGGSDIQMTQSPSSLSASVGDRVTITCRASQDITNDLGWYQQKPGKAPKLLIYQASSLESGVPSRFSGSGSGTDFTLTISSLQPEDFATYYCQQSYTIPLTFGQGTKVEIK,no binding,binds
MAdCAM Antibody Table 1 Clone 60 (scFv) scFv: EVQLLESGGGLVQPGGSLRLSCAASGFTFDDYTMHWVRQAPGKGLEWVSDISGSGGSTYYADSVKGRFTISRDNSKNTLYLQMNSLRAEDTAVYYCAKDVVVAGTPLHFDYWGQGTLVTVSSGGGGSGGGGSGGGGSGGGGSDIQMTQSPSSLSASVGDRVTITCQASQDISNYLNWYQQKPGKAPKLLIYAASYLQSGVPSRFSGSGSGTDFTLTISSLQPEDFATYYCQQAHNYPITFGQGTRLEIK,binds,binds
MAdCAM Antibody Table 1 Clone 50 (scFv) scFv: QVQLVQSGAEVKKPGASVKVSCKASGYTFTSYDINWVRQAPGQGLEWMGWINPNSGTTGYAQKFQGRVTMTRDTSTSTVYMELSSLRSEDTAVYYCARSPYYYYGMDVWGQGTTVTVSSGGGGSGGGGSGGGGSGGGGSDIQMTQSPSSLSASVGDRVTITCRASHFISRWVAWYQQKPGKAPKLLIYAASTLQSGVPSRFSGSGSGTDFTLTISSLQPEDFATYYCQQSYSGISFGPGTKVDIK,no binding,binds
MAdCAM Antibody Table 1 Clone 47 (scFv) scFv: EVQLLESGGGLVQPGGSLRLSCAASGFSFSDYGMHWVRQAPGKGLEWVSAISGSGGSTYYADSVKGRFTISRDNSKNTLYLQMNSLRAEDTAVYYCARDGGWQPAAILDYWGQGTLVTVSSGGGGSGGGGSGGGGSGGGGSDIQMTQSPSSLSASVGDRVTITCRASQGISNNLNWYQQKPGKAPKLLIYDASNLETGVPSRFSGSGSGTDFTLTISSLQPEDFATYYCQQSYSTPLTFGGGTKVEIK,no binding,binds
MAdCAM Antibody Table 1 Clone 57 (scFv) scFv: QVQLVQSGAEVKKPGASVKVSCKASGYTFTSYYMHWVRQAPGQGLEWMGIINPSGGSTSYAQKFQGRVTMTRDTSTSTVYMELSSLRSEDTAVYYCARDSVAGTGGRYYGMDVWGQGTLVTVSSGGGGSGGGGSGGGGSGGGGSDIQMTQSPSSLSASVGDRVTITCRASQGISNYFAWYQQKPGKAPKLLIYAASSLQGGVPSRFSGSGSGTDFTLTISSLQPEDFATYYCQQSYSLPYTFGQGTKLEIK,no binding,binds
MAdCAM Antibody Table 1 Clone 59 (scFv) scFv: EVQLLESGGGLVQPGGSLRLSCAASGFTFSDFWMHWVRQAPGKGLEWISYISGDSGYTNYADSVKGRFTISRDNSKNTLYLQMNSLRAEDTAVYYCARDRPYYYYMDVWGKGTTVTVSSGGGGSGGGGSGGGGSGGGGSDIQMTQSPSSLSASVGDRVTITCRASQSVSRSLAWYQQKPGKAPKLLIYAASSLQSGVPSRFSGSGSGTDFTLTISSLQPEDFATYYCQQYKSYPVTFGQGTKVEIK,binds,binds
MAdCAM Antibody Table 1 Clone 54 (scFv) scFv: EVQLLESGGGLVQPGGSLRLSCAASGFTFGDYAMSWVRQAPGKGLEWVAVVSYDGTNKYYADSVKGRFTISRDNSKNTLYLQMNSLRAEDTAVYYCAKDICSSTSCYFDLWGRGTLVTVSSGGGGSGGGGSGGGGSGGGGSDIQMTQSPSSLSASVGDRVTITCRASQNINNYVNWYQQKPGKAPKLLIYDASNLETGVPSRFSGSGSGTDFTLTISSLQPEDFATYYCQQANSFPPTFGQGTRLEIK,no binding,binds
MAdCAM Antibody Table 1 Clone 49 (scFv) scFv: QVQLVQSGAEVKKPGASVKVSCKASGDTFTGYYIHWVRQAPGQGLEWMGWINPNSGGTNYAQKFQGRVTMTRDTSTSTVYMELSSLRSEDTAVYYCARSGLWLGSYYGMDVWGQGTLVTVSSGGGGSGGGGSGGGGSGGGGSDIQMTQSPSSLSASVGDRVTITCRASQTISIWLAWYQQKPGKAPKLLIYDASTLQSGVPSRFSGSGSGTDFTLTISSLQPEDFATYYCQQYSSYPLTFGQGTKVEIK,no binding,binds

# Source: patent publication US20210206856A1 (PANDION OPERATIONS, published 2021)
